Data reported in the supplement of paper PMC12764529.
± gives the half width of the 95% confidence interval.

Assay: folding stability dG unfold from trypsin proteolysis; higher = more stable
Procedure, shortened: (§1)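 Designed mini-proteins with no cysteine and under 80 residues were kept only if AlphaFold2 dimer inter-PAE was above 15. In a PA-tagged cDNA display construct, they were digested with trypsin and chymotrypsin and then sequenced. K50 was inferred by Bayesian fitting of counts, and unfolding free energy was derived per protease or combined against a sequence-predicted unfolded-state K50 and a shared folded-state K50.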

Row | Sequence | folding stability dG unfold
1 | SAKTVKVRIELTLTVVKVTLDPETGELKVEEVKTLTLEIELEMSEEDLEKARRALEEELKRLLEELGIPSAG [r14_308_TrROS_Hall] | 3.64 ± 0.29 kcal/mol
2 | SAGGSAGGDIEVRPVGVVPTPDGRLVRVEEVTFPETGRTLLVAVDLEPGRVYVFDPETGEWREESAGGSAGG [r6_114_TrMRF] | 0.502 ± 0.091 kcal/mol
3 | SAGGSAGGSMTETVEKAPDGTPVLVLKETEESTGDGGKTILRPSTVLLPPGTVLSTEDEVILESAGGSAGGS [r12_581_JUSTAS] | 0.944 ± 0.069 kcal/mol
4 | SAGGSAGGSAMKFPKGAKIEIVVTEDKVYVRIKTPGGKEIEVEMTLEELKKLGFEVEIVEEESAGGSAGGSA [r18_125_TrROS_Hall] | 1.75 ± 0.086 kcal/mol
5 | SAGGMVRVTVVPTPGRAGEPVTLVIEHPDGTRTVPLPPDTSPEEARAAAERLAEEEGLDVAEVVFEASAGGS [r16_753_JUSTAS] | 0.243 ± 0.07 kcal/mol
6 | SPIKLPIVFPNLPKEEAKEAVEALAKELEEKYGFKIEVEVEELRAPDGKLVAVVAIATIEKFGEEDKLLFSA [r9_21_TrMRF] | 1.3 ± 0.08 kcal/mol
7 | SAGGSAGGSAGGMRRVTIWFPIPEDEEITFKLPGNGVEVEIEPDKGNGFFRITVYLPDGSAGGSAGGSAGGS [r10_1138_TrROS] | 1.42 ± 0.036 kcal/mol
8 | IETGEYDIEIELPAPNGYKVKVKFKFVKVDPENGKVYVEVELEVTLPGGKPIKLPLRLVMPAEEIKKFLESS [r1_371_TrMRF] | 2.98 ± 0.072 kcal/mol
9 | SAGGSAGGMTKDDIIEKLKKEYPDKDVKVLKVEESVLPSGKILAKVTLEFPEEGKTFEKTFEVESAGGSAGG [r6_572_JUSTAS] | 2.91 ± 0.3 kcal/mol
10 | SAGGFIVVPIKAKSLEEALEKAREIAAALGIPGTLEDPRVDLDDFLKNYKPDTEVRVYVRHPDGVIDELSAG [r5_503_TrMRF] | 1.23 ± 0.033 kcal/mol
11 | SAGGSAGGMTLEIEVNGKKIKIEVIKDKETNRYFVRITVDGKEVLIEADSKEDALKAIKELLKKSAGGSAGG [r6_715_TrROS_Hall] | 2.93 ± 0.059 kcal/mol
12 | SAGGSATVTVTLVVRDPATGELTTVTATVTLEAAPAPVSVSLSLSLSRDPNGNLSLSLSVSVTVEGSAGGSA [r2_326_TrROS_Hall] | 4.02 ± 0.094 kcal/mol
13 | SAGGSAGGSAGGGSSVITTTETDPANGLLTTTTTTINGSETVPSSTVSPVPPPPPPSTLSAGGSAGGSAGGS [r10_354_JUSTAS] | 1.67 ± 0.14 kcal/mol
14 | SAGGSAGGSAKKPVTGTIILKYPGTPEDALAKAKEIAKELESRGYSVSAEFLPNGYIKITLPSAGGSAGGSA [r18_262_TrMRF] | 1.48 ± 0.049 kcal/mol
15 | SAGGSAGGSAGKIKIEKDKNGNYRVILKNGKVYEFKSIEEAKEELKKKFPNIKEIEIVKTSAGGSAGGSAGG [r11_806_TrROS_Hall] | 3.21 ± 0.18 kcal/mol
16 | KKEEEIKKLEEAVREALKKKGLEVKIVEVKKNKNGEYTLTIELKDGKKIEITIKKEKMTVEDILKKLKELLS [r1_279_TrROS_Hall] | 4.13 ± 0.23 kcal/mol
17 | SKTVVVEINGYLIVVEEKKLENGETYYTVKIVNKKTKKVIEVKAKSKEEAEKAVLEALRKLFPDEELKKLSA [r9_749_TrROS_Hall] | 3.05 ± 0.15 kcal/mol
18 | SDIKIENYERNPGNGMYMWTVKLPDDGKKIEIMYPPGGIYISVEHPGKKKMFPFKSWEDMLDQVKDLLKNSA [r9_527_TrROS] | 1.24 ± 0.045 kcal/mol
19 | SAGGSAGGGMLNGLLEKLLLAEPVEVDPVTTTVTPSPNGTVTTTPVYSTADDSVLTETQTTPVASAGGSAGG [r6_326_JUSTAS] | 0.341 ± 0.057 kcal/mol
20 | SAGGSAGGSAGGAIVTTTTTKAPVFAPDGTVVAEITTTTVTVILPETPPSLLPEVLERLASAGGSAGGSAGG [r7_450_JUSTAS] | 0.553 ± 0.06 kcal/mol
21 | SMKKTIIIKVKKEDMTPEEIAKKLAELGYEVEIVDVEYDEETEEVYITVEIYDENGELIEKIEIKLPRKDSA [r9_879_TrROS_Hall] | 0.825 ± 0.16 kcal/mol

Row | Sequence | folding stability dG unfold
22 | SAMKIKVPPGAEIITEDGEKIEPGQEVEVTDIEFDEETGEVHITVKIKNPETGEEIEEKVTIRFPKEEESAG [r14_258_TrROS_Hall] | 1.29 ± 0.11 kcal/mol
23 | SMIDIEISTDPNNPNVITVTAKYPDPEKAKEYLEKKLKEEYDVISISYEYEPENPIITFTFTYASPEKPQSA [r9_1120_JUSTAS] | 2.37 ± 0.078 kcal/mol
24 | SAGGSAGGSETVTLTLVVDSPEEAKALIDALKKAGIKEVTLEEKDGKLVLTITMSKEELEKLKSAGGSAGGS [r12_846_TrROS_Hall] | 2.31 ± 0.23 kcal/mol
25 | SAGGSAGGSAEPVRLVVVTPGFPDGPPIPVEELEALLEAEDVTVVDPFTIPELGYVVLLVEASAGGSAGGSA [r18_466_TrMRF] | 1.4 ± 0.048 kcal/mol
26 | SAGGVWIEITFLMPAEQLLNFIKNLAEEFGYQVNIDVKIQPYPNGPMVTHEIEIKPLPPKVPEEDQESAGGS [r16_262_TrROS] | 2.5 ± 0.13 kcal/mol
27 | SAGMKKKKIKKVEIEIKKGEKTIRVKLENGEEIEYKFKEEDLEEALKKIAEKLGLKKGDKIKIVEIEIESAG [r5_923_TrROS_Hall] | 1.16 ± 0.12 kcal/mol
28 | SAGGSAGGSAMKVITLPENADINKVIEAVEAGSPILVKIVDPKSSKTTDLPLPSKEAVEKLSAGGSAGGSAG [r3_362_JUSTAS] | -0.468 ± 0.17 kcal/mol
29 | SAGGSAGGSAGPALRIPFLVERPDGSPFWAEARVYEDGTVELRIYGDEPIATFTFPLDELSAGGSAGGSAGG [r11_327_TrMRF] | 1.55 ± 0.044 kcal/mol
30 | SAGGSAGGSAGGMKIKNAEIVEVKEENGKKTLLVKNKETGKYYKITIDDNKITIEEVKVPSAGGSAGGSAGG [r7_940_TrROS_Hall] | 2.21 ± 0.32 kcal/mol
31 | SAGWYIKVEVYYGGKKHTFMIPRKQAKELRKKYPPGDEIPIPFNGRDVEIRVQVIPPPPPSPEDAADNKSAG [r5_669_TrROS] | 1.83 ± 0.047 kcal/mol
32 | SAGGLAPVYKTEDGVYLITPYNPETGELLETIPISEEDIEELSKEYGRDLTIEEIVKKLGYETEITVASAGG [r13_836_TrMRF] | 0.786 ± 0.057 kcal/mol
33 | SAGGSAGGSAMIETTVSFDPSTGTVTTTTTYTDPNGGYTKSSTTVTPVPTPAPPPPAAPNRVSAGGSAGGSA [r18_361_JUSTAS] | 0.409 ± 0.029 kcal/mol
34 | SAGGGPFGIPFPFPIEDPDRLDLVEGLVAELEEFFRSLGAGPLTAERVGDTTYVVLVPFDGKPIVSGSAGGS [r16_703_TrMRF] | 1.51 ± 0.025 kcal/mol
35 | SMLVLRLPDNRLAVLEYDPETKRLRVLVVDPESGRLTVAEIHPETGEITVDEYTLLPNGEPLPHRFELPLSA [r9_1073_TrMRF] | 2.84 ± 0.099 kcal/mol
36 | SAGGKKKLTLEIKIKVPKEEEEKAKEKAKKLAEELAKKLKEAGYKVKVTVEIDEETGEITVKVEVELPSAGG [r13_755_TrROS_Hall] | 2.84 ± 0.34 kcal/mol
37 | SAGGSAGGSAGGSGPVPVTIKSVTTYPEKDVYKVETVPATPEPITITLSPEELSDVVILSAGGSAGGSAGGS [r4_51_JUSTAS] | -1.69 ± 0.57 kcal/mol
38 | SALKIEISFPGNAGEVRERVLGREDGSYEVEFLVTFPTPGDGIPSVLRVTYRVDPVSGKIEPRLEPVDASAG [r14_590_TrMRF] | 1.48 ± 0.025 kcal/mol
39 | SAGGSAGGMVIVFDKKNKTIYIYDKKTGKKIEIKVKSIEEAKEAIKKLFPNKKVEIVEVKIFKPSAGGSAGG [r6_286_TrROS_Hall] | 1.43 ± 0.065 kcal/mol
40 | SAGGSAGGSDDDDAKKAMEQMKPPPIPIKIQVKIEYDPSLGWLKVEIHFFGFGLRITGTIPIDSAGGSAGGS [r20_230_TrROS] | 3.33 ± 0.16 kcal/mol
41 | SAGGMSPELKKNKNVEKVIYNKKTGKVFVYNKKTKKLYIFTKNGKKIEIKMSKDEVEKLLKKGFKPISAGGS [r16_745_TrROS_Hall] | 2.14 ± 0.11 kcal/mol

Assay: folding stability dG unfold from chymotrypsin proteolysis; higher = more stable
Procedure, shortened: as §1

Row | Sequence | folding stability dG unfold
42 | SAKTVKVRIELTLTVVKVTLDPETGELKVEEVKTLTLEIELEMSEEDLEKARRALEEELKRLLEELGIPSAG [r14_308_TrROS_Hall] | 3.78 ± 0.33 kcal/mol
43 | SAGGSAGGDIEVRPVGVVPTPDGRLVRVEEVTFPETGRTLLVAVDLEPGRVYVFDPETGEWREESAGGSAGG [r6_114_TrMRF] | 1.76 ± 0.02 kcal/mol
44 | SAGGSAGGSMTETVEKAPDGTPVLVLKETEESTGDGGKTILRPSTVLLPPGTVLSTEDEVILESAGGSAGGS [r12_581_JUSTAS] | 1.83 ± 0.071 kcal/mol
45 | SAGGSAGGSAMKFPKGAKIEIVVTEDKVYVRIKTPGGKEIEVEMTLEELKKLGFEVEIVEEESAGGSAGGSA [r18_125_TrROS_Hall] | 2.27 ± 0.061 kcal/mol
46 | SAGGMVRVTVVPTPGRAGEPVTLVIEHPDGTRTVPLPPDTSPEEARAAAERLAEEEGLDVAEVVFEASAGGS [r16_753_JUSTAS] | 0.428 ± 0.086 kcal/mol
47 | SPIKLPIVFPNLPKEEAKEAVEALAKELEEKYGFKIEVEVEELRAPDGKLVAVVAIATIEKFGEEDKLLFSA [r9_21_TrMRF] | 1.12 ± 0.14 kcal/mol
48 | SAGGSAGGSAGGMRRVTIWFPIPEDEEITFKLPGNGVEVEIEPDKGNGFFRITVYLPDGSAGGSAGGSAGGS [r10_1138_TrROS] | 2.07 ± 0.12 kcal/mol
49 | IETGEYDIEIELPAPNGYKVKVKFKFVKVDPENGKVYVEVELEVTLPGGKPIKLPLRLVMPAEEIKKFLESS [r1_371_TrMRF] | 4.94 ± 0.053 kcal/mol
50 | SAGGSAGGMTKDDIIEKLKKEYPDKDVKVLKVEESVLPSGKILAKVTLEFPEEGKTFEKTFEVESAGGSAGG [r6_572_JUSTAS] | 2.69 ± 0.13 kcal/mol
51 | SAGGFIVVPIKAKSLEEALEKAREIAAALGIPGTLEDPRVDLDDFLKNYKPDTEVRVYVRHPDGVIDELSAG [r5_503_TrMRF] | 0.223 ± 0.21 kcal/mol
52 | SAGGSAGGMTLEIEVNGKKIKIEVIKDKETNRYFVRITVDGKEVLIEADSKEDALKAIKELLKKSAGGSAGG [r6_715_TrROS_Hall] | 4.42 ± 0.076 kcal/mol
53 | SAGGSATVTVTLVVRDPATGELTTVTATVTLEAAPAPVSVSLSLSLSRDPNGNLSLSLSVSVTVEGSAGGSA [r2_326_TrROS_Hall] | 5.93 ± 0.13 kcal/mol
54 | SAGGSAGGSAGGGSSVITTTETDPANGLLTTTTTTINGSETVPSSTVSPVPPPPPPSTLSAGGSAGGSAGGS [r10_354_JUSTAS] | 0.0312 ± 0.094 kcal/mol
55 | SAGGSAGGSAKKPVTGTIILKYPGTPEDALAKAKEIAKELESRGYSVSAEFLPNGYIKITLPSAGGSAGGSA [r18_262_TrMRF] | 1.78 ± 0.051 kcal/mol
56 | SAGGSAGGSAGKIKIEKDKNGNYRVILKNGKVYEFKSIEEAKEELKKKFPNIKEIEIVKTSAGGSAGGSAGG [r11_806_TrROS_Hall] | 4.29 ± 0.29 kcal/mol
57 | KKEEEIKKLEEAVREALKKKGLEVKIVEVKKNKNGEYTLTIELKDGKKIEITIKKEKMTVEDILKKLKELLS [r1_279_TrROS_Hall] | 4.04 ± 0.15 kcal/mol
58 | SKTVVVEINGYLIVVEEKKLENGETYYTVKIVNKKTKKVIEVKAKSKEEAEKAVLEALRKLFPDEELKKLSA [r9_749_TrROS_Hall] | 2.45 ± 0.075 kcal/mol
59 | SDIKIENYERNPGNGMYMWTVKLPDDGKKIEIMYPPGGIYISVEHPGKKKMFPFKSWEDMLDQVKDLLKNSA [r9_527_TrROS] | 1.79 ± 0.23 kcal/mol
60 | SAGGSAGGGMLNGLLEKLLLAEPVEVDPVTTTVTPSPNGTVTTTPVYSTADDSVLTETQTTPVASAGGSAGG [r6_326_JUSTAS] | -0.574 ± 0.19 kcal/mol
61 | SAGGSAGGSAGGAIVTTTTTKAPVFAPDGTVVAEITTTTVTVILPETPPSLLPEVLERLASAGGSAGGSAGG [r7_450_JUSTAS] | 0.801 ± 0.076 kcal/mol
